Assay [1] concerns the target bovine lactoferrin (bovine). Put plainly: AUC; follow-up multi-signal sedimentation velocity (MSSV) without constraints, conducted almost identically to a1 but with absorbance at 280 nm and 250 nm and no interference signal; Tp34/bLF mixture in solution.
Assay [2] deals with bovine lactoferrin (bovine). Put plainly: AUC; multi-signal sedimentation velocity (MSSV) with mass conservation and low-s constraints; mixture of 6.9 µM Tp34 and 2.3 µM bLF in solution, diluted from Buffer A into 20 mM Tris pH 7.5, 20 mM NaCl; 20°C, 50,000 rpm; interference + absorbance at 280 nm; Kd estimated from the reaction boundary molar ratio by effective particle theory, assuming sAB = 6.2 S.

B1: Tp34 from Treponema pallidum (natural protein)
chain: CGGGGEHQHGEEMMAAVPAPDAEGAAGFDEFPIGEDRDVGPLHVGGVYFQPVEMHPAPGAQPSKEEADCHIEADIHANEAGKDLGYGVGDFVPYLRVVAFLQKHGSEKVQKVMFAPMNAGDGPHYGANVKFEEGLGTYKVRFEIAAPSHDEYSLHIDEQTGVSGRFWSEPLVAEWDDFEWKGPQW
With B1, the stoichiometry N (mol Tp34 per mol bLF) in assay [1] came out at 0.7. Besides, in assay [2], the Kd was 3.1 µM and the stoichiometry N (mol Tp34 per mol bLF) is 0.7.
